From PMC8996148, “Crystal structure of the ternary complex of Leishmania major pteridine reductase 1 with the cofactor NADP^+/NADPH and the substrate folic acid” (Acta Crystallographica. Section F, Structural Biology …, 2022)

Target: the molecule itself
Assay: crystal structure; pre-formed crystals of the native enzyme (sitting drop, 293 K, 12% PEG 4600, 100 mM sodium acetate pH 5.5, 120-160 mM calcium acetate) soaked with 2 mM folate for 15 min; space group P212121, four copies per asymmetric unit; 1.81 Å

B1: Leishmania major pteridine reductase 1 (enzyme)
chain: MTAPTVPVALVTGAAKRLGRSIAEGLHAEGYAVCLHYHRSAAEANALSATLNARRPNSAITVQADLSNVATAPVSGADGSAPVTLFTRCAELVAACYTHWGRCDVLVNNASSFYPTPLLRNDEDGHEPCVGDREAMETATADLFGSNAIAPYFLIKAFAHRVAGTPAKHRGTNYSIINMVDAMTNQPLLGYTIYTMAKGALEGLTRSAALELAPLQIRVNGVGPGLSVLVDDMPPAVWEGHRSKVPLYQRDSSAAEVSDVVIFLCSSKAKYITGTCVKVDGGYSLTRA
notes: Pteridine reductase 1, Leishmania major, UniProtKB Q01782; codon-optimized synthetic DNA in pET-15b; also called LmPTR1; PTR1
stoichiometry N: 4
